Data taken from patent US12173349B2, “Lung protease nanosensors and uses thereof” (Massachusetts Institute of Technology, priority 2018, dated 2024).
Primed or numbered codes have the meaning given here. Where no end group is shown, it is not given here. FAM = carboxyfluorescein fluorophore label; 5FAM′ = 5-carboxyfluorescein

Legend:
[1] = urinary filtration of mass-encoded free reporters after IT or IV administration; type: in vivo, mice; settings: doses 2.5 ng to 25 ng, urine at 1 hour
Source text: To enable detection of a broad spectrum of disease-associated proteases in vivo, the 14 peptides of the LUAD substrate panel were appended with mass-encoded reporters (PP1-14; Table 3). Following substrate proteolysis, the reporters diffuse away from the nanoparticle scaffold and are sized so as to be able to efficiently cross into the bloodstream, where they can be concentrated into the urine by glomerular filtration (FIG. 1B). As previously described (Kwong et al., Nat Biotechnol 31, 63-70, 2013), variable labeling of the 14-mer Glu-Fibrinopeptide B (Glu-Fib) with stable isotope-labeled amino acids was used to uniquely barcode each of 14 peptide substrates. Multiple reaction monitoring via a liquid chromatography triple quadrupole mass spectrometer (LC-MS/MS) enables quantitative assessment of peptide-liberated urinary reporter concentration within a broad linear range (1-1000 ng/mL, FIG. 8A). Using mass-encoded free reporters, the filtration of Glu-Fib reporters into the urine after IT or IV administration was assessed and strong linearity of the MS assay for both routes of delivery for input doses between 2.5 ng and 25 ng (R^2=1.00, FIG. 8B) was found for both routes of delivery (sloperIT=0.075 ng^−1, slopeIV=0.077 ng^−1; FIG. 8B).
Liquid chromatography/tandem mass spectrometry was performed by Syneos Health (Princeton, NJ) using a Sciex 6500 triple quadrupole instrument. […]

[2] = molecular target: thrombin (Mus musculus, UniProt P19221); test: recombinant host protease cleavage assay; type: biochemical
Procedure: (§1) The specificity of LAS and ELA for P. aeruginosa cleavage was tested by collecting supernatants from PA01 or Staphylococcus aureus cultures and incubating them with FRET-paired substrates LAS-Q and ELA-Q in 384 well plates. […] To investigate whether the LAS and ELA substrates are also susceptible to cleavage by host proteases, each was incubated with recombinant mouse proteases.
(§2) Supernatant from PA01 and S. aureus were collected and added to substrates in 384 well plates and dequenching of FAM was monitored at 37° C. (Tecan). Fluorescence change at 30 minutes was reported. For recombinant protease assays, enzyme was added to the substrates in enzyme-specific buffer (MMP7 & 9 buffer: 50 mM Tris, 150 mM NaCl, 5 mM CaCl2), […], pH 7.5; Thrombin: PBS; NE: 100 mM HEPES, 500 mM NaCl, 0.05% Tween 20) in a 384 well plate for time-lapse fluorimetry to measure dequenching at 37° C. (Tecan).

[3] = molecular target: T1, MMP7 (Mus musculus, UniProt Q10738); test: recombinant host protease cleavage assay; type: biochemical
T1 sequence (Q10738 95-264): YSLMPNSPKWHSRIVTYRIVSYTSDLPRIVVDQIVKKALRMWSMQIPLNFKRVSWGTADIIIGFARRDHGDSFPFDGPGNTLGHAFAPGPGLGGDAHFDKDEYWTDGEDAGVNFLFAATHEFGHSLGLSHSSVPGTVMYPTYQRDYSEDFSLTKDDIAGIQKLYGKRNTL
Procedure: as §1, §2

[4] = molecular target: MMP13 (Mus musculus, UniProt P33435); test: recombinant host protease cleavage assay; type: biochemical
Procedure: as §1, §2

[5] = system: PA01 supernatant; test: cleavage of FRET-paired substrates by bacterial supernatant; type: biochemical, Pseudomonas aeruginosa; settings: PA01 culture supernatant, fluorescence change at 30 minutes
Procedure: as §1, §2

[6] = system: P. aeruginosa clinical isolate strains; test: cleavage of FRET-paired substrates by clinical isolate supernatants; type: biochemical, Pseudomonas aeruginosa; settings: five clinical isolate strains
Procedure: P. aeruginosa strains isolated from de-identified clinical samples were generously provided by Dr. Deborah Hung, MD, PhD (Massachusetts General Hospital). Cultures of each were grown in LB broth overnight, then were subcultured in fresh LB and each strain grown to OD-matched mid log phase (OD600˜0.5). Supernatants were collected by centrifugation and substrate cleavage was monitored as described above.

[7] = molecular target: T2, recombinant human MMP13 (Homo sapiens, UniProt P45452); test: cleavage of aerosolized fluorogenic nanosensor by MMP13; type: biochemical; settings: 50 nM MMP13, 5 μM nanosensor
T2 construct: purchased Enzo
Procedure: As a step toward developing a more clinically relevant delivery method, particle durability and biodistribution after aerosolization were also characterized.
Analysis of nanoparticle stability and protease cleavage susceptibility following aerosolization used […] 250 μM PEG-840 kDa scaffold (FIGS. 22B-22E) or 5 μM PPQ5 PEG-840 kDa nanosensors (FIG. 22F). Protease cleavage assays of aerosolized nanoparticles used 50 nM of recombinant human MMP13 (Enzo).

Glu-Fib reporters: mass-encoded free reporters, stable isotope-labeled variants of 14-mer Glu-Fibrinopeptide B
slope of urinary reporter signal versus input dose ([1]; IT administration): 0.075 ng⁻¹ | slope of urinary reporter signal versus input dose ([1]; IV administration): 0.077 ng⁻¹

LAS-Q: FRET-paired (FAM fluorophore, Dabcyl quencher) substrate for P. aeruginosa protease LasA; includes SEQ ID NO: 45 (GLGGGAGK(FAM); also: Dabcyl quencher, site not given here)
cleavage by recombinant protease [2]: resist cleavage | cleavage by recombinant protease [3]: resist cleavage | cleavage by recombinant protease [4]: resist cleavage | cleavage by supernatant (fluorescence signal) [5]: greater selectivity for cleavage of LAS-Q by PA01 | strains whose supernatant gave significant cleavage [6]: 3 of the 5 strains

PEG-PPQ5: fluorogenic nanosensor, PPQ5 on PEG-840 kDa ({5FAM′}-GGPLGVRGKKC; not fully specified (residue 10); printed as GGPLGVRGKK(CPQ2)-PEG2-C; also: on PEG-840 kDa carrier, site not given here)
sensitivity to in vitro cleavage pre- versus post-aerosolization [7]: equally sensitive
